Experimental findings from US9193965B2, “Acetolactate synthase having 2-ketoisovalerate decarboxylase activity and uses thereof” (The Regents of the University of California, priority 2010, dated 2015) are described below.

As a reminder, the Km is the substrate concentration at which the rate is half of its maximum. The kcat is the number of substrate molecules converted per active site and unit of time at saturation.

Substrate in this series: CC(=O)C(=O)O
Put plainly: purified protein, by the assay type. The settings on record: pH 7.0, 37° C., 0.1 mM TPP, ± standard deviation.

Protocol: The wild type AlsS and AlsS variants were synthesized from a His-tag plasmid in E. coli strain BL21 Star™ (DE3) (Invitrogen (Carlsbad, Calif.)) followed by purification with Ni-nitrilotriacetic acid (NTA) spin columns (Qiagen (Valencia, Calif.)). Protein concentrations were determined by the Bradford assay (Bio-Rad (Hercules, Calif.)).
Als enzyme activity. An enzyme assay for Als activity of AlsS was carried out in 1 ml of morpholinepropanesulfonic acid (MOPS) buffer (pH 7.0) containing 80 nM AlsS, 100 mM MOPS (pH 7.0), 1 mM MgCl2, 0.1 mM TPP, 10 mM acetate, and various concentrations of pyruvate at 37° C. for 10 min. The reaction was terminated by acidification of the solution with 0.1 ml of 50% H2SO4. The mixture was incubated for an additional 25 min at 37° C. to allow for the acid hydrolysis of the acetolactate to acetoin. […] One unit of enzyme activity was defined as the amount of enzyme that converts 1 μmol of substrate into product in 1 minute under these conditions. The Km values for pyruvate and the Vmax were extrapolated after nonlinear regression of the experimental points with the Gauss-Newton method using Matlab.

B1: Bacillus subtilis acetolactate synthase AlsS, wild type (Q at residue 487), SEQ ID NO: 2 (Bacillus subtilis subsp. subtilis str. 168) (protein)
chain: VLTKATKEQKSLVKNRGAELVVDCLVEQGVTHVFGIPGAKIDAVFDALQDKGPEIIVARHEQNAAFMAQAVGRLTGKPGVVLVTSGPGASNLATGLLTANTEGDPVVALAGNVIRADRLKRTHQSLDNAALFQPITKYSVEVQDVKNIPEAVTNAFRIASAGQAGAAFVSFPQDVVNEVTNTKNVRAVAAPKLGPAADDAISAAIAKIQTAKLPVVLVGMKGGRPEAIKAVRKLLKKVQLPFVETYQAAGTLSRDLEDQYFGRIGLFRNQPGDLLLEQADVVLTIGYDPIEYDPKFWNINGDRTIIHLDEIIADIDHAYQPDLELIGDIPSTINHIEHDAVKVEFAEREQKILSDLKQYMHEGEQVPADWKSDRAHPLEIVKELRNAVDDHVTVTCDIGSHAIWMSRYFRSYEPLTLMISNGMQTLGVALPWAIGASLVKPGEKVVSVSGDGGFLFSAMELETAVRLKAPIVHIVWNDSTYDMVAFQQLKKYNRTSAVDFGNIDIVKYAESFGATGLRVESPDQLADVLRQGMNAEGPVIIDVPVDYSDNINLASDKLPKEFGELMKTKAL
Regarding B1, where the note is “other: wild type”, the Km worked out at 13.6 ± 0.8 mM and the kcat was 121 ± 13 s⁻¹.

B2: Bacillus subtilis acetolactate synthase AlsS variant Q487A, SEQ ID NO: 10 (Bacillus subtilis subsp. subtilis str. 168; Q486A) (protein)
chain: VLTKATKEQKSLVKNRGAELVVDCLVEQGVTHVFGIPGAKIDAVFDALQDKGPEIIVARHEQNAAFMAQAVGRLTGKPGVVLVTSGPGASNLATGLLTANTEGDPVVALAGNVIRADRLKRTHQSLDNAALFQPITKYSVEVQDVKNIPEAVTNAFRIASAGQAGAAFVSFPQDVVNEVTNTKNVRAVAAPKLGPAADDAISAAIAKIQTAKLPVVLVGMKGGRPEAIKAVRKLLKKVQLPFVETYQAAGTLSRDLEDQYFGRIGLFRNQPGDLLLEQADVVLTIGYDPIEYDPKFWNINGDRTIIHLDEIIADIDHAYQPDLELIGDIPSTINHIEHDAVKVEFAEREQKILSDLKQYMHEGEQVPADWKSDRAHPLEIVKELRNAVDDHVTVTCDIGSHAIWMSRYFRSYEPLTLMISNGMQTLGVALPWAIGASLVKPGEKVVSVSGDGGFLFSAMELETAVRLKAPIVHIVWNDSTYDMVAFAQLKKYNRTSAVDFGNIDIVKYAESFGATGLRVESPDQLADVLRQGMNAEGPVIIDVPVDYSDNINLASDKLPKEFGELMKTKAL
Consider B2, for which, under “other: Q487A”, the Michaelis-Menten constant (Km) was found to be 8.7 ± 0.5 mM and the kcat is 58 ± 8 s⁻¹.

B3: Bacillus subtilis acetolactate synthase AlsS variant Q487G (Bacillus subtilis subsp. subtilis str. 168; Q486G) (protein)
chain: VLTKATKEQKSLVKNRGAELVVDCLVEQGVTHVFGIPGAKIDAVFDALQDKGPEIIVARHEQNAAFMAQAVGRLTGKPGVVLVTSGPGASNLATGLLTANTEGDPVVALAGNVIRADRLKRTHQSLDNAALFQPITKYSVEVQDVKNIPEAVTNAFRIASAGQAGAAFVSFPQDVVNEVTNTKNVRAVAAPKLGPAADDAISAAIAKIQTAKLPVVLVGMKGGRPEAIKAVRKLLKKVQLPFVETYQAAGTLSRDLEDQYFGRIGLFRNQPGDLLLEQADVVLTIGYDPIEYDPKFWNINGDRTIIHLDEIIADIDHAYQPDLELIGDIPSTINHIEHDAVKVEFAEREQKILSDLKQYMHEGEQVPADWKSDRAHPLEIVKELRNAVDDHVTVTCDIGSHAIWMSRYFRSYEPLTLMISNGMQTLGVALPWAIGASLVKPGEKVVSVSGDGGFLFSAMELETAVRLKAPIVHIVWNDSTYDMVAFGQLKKYNRTSAVDFGNIDIVKYAESFGATGLRVESPDQLADVLRQGMNAEGPVIIDVPVDYSDNINLASDKLPKEFGELMKTKAL
With B3, for the setting “other: Q487G”, the Km came out at 1.6 ± 0.4 mM and the kcat amounted to 11 ± 5 s⁻¹.

B4: Bacillus subtilis acetolactate synthase AlsS variant Q487S (Bacillus subtilis subsp. subtilis str. 168; Q486S) (protein)
chain: VLTKATKEQKSLVKNRGAELVVDCLVEQGVTHVFGIPGAKIDAVFDALQDKGPEIIVARHEQNAAFMAQAVGRLTGKPGVVLVTSGPGASNLATGLLTANTEGDPVVALAGNVIRADRLKRTHQSLDNAALFQPITKYSVEVQDVKNIPEAVTNAFRIASAGQAGAAFVSFPQDVVNEVTNTKNVRAVAAPKLGPAADDAISAAIAKIQTAKLPVVLVGMKGGRPEAIKAVRKLLKKVQLPFVETYQAAGTLSRDLEDQYFGRIGLFRNQPGDLLLEQADVVLTIGYDPIEYDPKFWNINGDRTIIHLDEIIADIDHAYQPDLELIGDIPSTINHIEHDAVKVEFAEREQKILSDLKQYMHEGEQVPADWKSDRAHPLEIVKELRNAVDDHVTVTCDIGSHAIWMSRYFRSYEPLTLMISNGMQTLGVALPWAIGASLVKPGEKVVSVSGDGGFLFSAMELETAVRLKAPIVHIVWNDSTYDMVAFSQLKKYNRTSAVDFGNIDIVKYAESFGATGLRVESPDQLADVLRQGMNAEGPVIIDVPVDYSDNINLASDKLPKEFGELMKTKAL
Consider B4, for which, for the setting “other: Q487S”, the Michaelis-Menten constant (Km) is listed as 1.1 ± 0.6 mM and the catalytic constant (kcat) was 11 ± 6 s⁻¹.
